Measured values taken from US20160122417A1.

Molecular target: wild-type human EGFR from A431 cells (human) (UniProt P00533)
Assay: scFv-linked agarose beads incubated with A431 cell lysate; captured EGFR detected with anti-EGFR antibody cocktail, bead fluorescence normalized to the U87-EGFRvIII lysate signal

- percent reduction in A431 lysate EGFR binding signal relative to U87-EGFRvIII lysate signal: 85%
Substance: MR1 scFv, azide-functionalized and immobilized on DBCO-functionalized agarose beads
